# B1: TPR t1 (parent)
# chain: GACCAAUCUGCCCUCAGAGCUCGAGAACAUCUUCGGAUGCAGAGGAGGCAGGCUUCGGUGGCGCGAUAGCGCCAACGUCCUCAACCUCCAAUGCAUCCCACCACAUGAUGAUGCCUGAAGAGCCUUGGUUUUUUG
# Variants of: B1
# Assay: polymerase ribozyme fitness, log enrichment relative to wild type (log ratio); higher = more active; in vitro selection for triplet polymerase activity
# Summary of the method: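 Streptavidin-bead capture of gel-excised extended constructs, followed by RT-PCR, closed a single triplicate in vitro selection round. That round began by annealing PCR-built, transcribed mutant libraries of each subunit of a heterodimeric triplet polymerase ribozyme with a biotinylated primer, the partner subunit and triplets, then incubating them frozen at −7 °C. After Illumina sequencing of inputs and outputs, genotypes needed ≥10 input reads and ≥1 read per output. Fitness is the base-2 logarithm of genotype enrichment over wild-type enrichment, using inverse-variance-weighted replicate averages.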
row,Variant,polymerase ribozyme fitness (log ratio)
1,A111U G120A,-3.85
2,A111U G120U,-4.5
3,A105U C115U,-1.94
4,U112C C124A G128A,0.254
5,U116G U126C,-3.51
6,U106C U125A,-0.83
7,C115U G120C C123A,0.543
8,C114G U126G,-4.32
9,A111C A121C,-0.386
10,C115A A118G,-0.852
11,U106A U112A U129C,0.363
12,G110A U116G,-3.5
13,G107C G120U,-3.85
14,G107A U130G,-6.83
15,A105U G120U C123U,-2.19
16,C114U U130A,-2.7
17,G107A,-4.86
18,G107U,-4.78
19,G107C,-5.46
20,G113A C123G U129A,-1.16
21,G110C G127U,-2.52
22,A111G U112A,-2.9
23,U106G U133G,-0.611
24,C115U G120A U131A,-2.07

row,Variant,polymerase ribozyme fitness (log ratio)
1,C115G G117C,-5.84
2,G110C C123G,-4.09
3,U112A C114G,-0.0146
4,C114U C124G,-0.85
5,A105U U112C,-1.65
6,A111G G117U,-4.12
7,A111G G117A,-1.65
8,A108G C115U,-3.36
9,A111G U116G C124A U131G,-1.23
10,G113U C123U,-3.05
11,G113U C123G,-1.81
12,U112C U125A,1.63
13,U112A G122U U129C,0.27
14,G113U C124U,-2.48
15,G110C U112G,-4.99
16,C114A G117C,-4.77
17,U106A C123A,0.524
18,U109C C115A,-3.11
19,U109A U116G,-5.73
20,G110C G113A,-6.42
21,G113A C124G,-0.302
22,G113A C124A,-1.44
23,G113A C124U,-0.971
24,G117C C124U,-3.55

row,Variant,polymerase ribozyme fitness (log ratio)
1,G107A G120U,-4.71
2,G110U U112G,-4.22
3,G110U U112A,-2.85
4,C114U G120U,-2.8
5,C115A U133A,0.127
6,A105U G113C,-5.86
7,C115U U125A,-0.551
8,U116G U129G,-4.36
9,G107A U116C,-5.17
10,A111C G117A,-2
11,G117A G127C,-1.7
12,G117A G127A,-4.19
13,U112C G127A,0.907
14,U112A C124U,1.1
15,A111U A121C U126A U130G,-2.89
16,G113A U132C,-1.76
17,U116G U125A,-2.37
18,G113A U129G,-1.7
19,C114U G127U,-3.69
20,U109C U126A,-4.99
21,A105G U109A,-5.94
22,U112G A121U,0.924
23,G113C C123A,-2.82
24,G107C G135U,-5.77

row,Variant,polymerase ribozyme fitness (log ratio)
1,G110A C115G,-5.71
2,G107A A121C,-3.64
3,U106C U132A,-0.182
4,C115A C123G,1.01
5,A108G G135U,-2.4
6,G110C G135C,-4.01
7,G113A C123G,-0.469
8,G110U G120C G127A G128U,-4.38
9,C114G U130G U133A,-2.19
10,C114G G117A G135U,-6.72
11,A105G A121C,-0.542
12,U109C U130C,-5.04
13,C114U G117U,-5.77
14,G113U G135U,-3.24
15,C114A G135U,-1.88
16,A111U G113A U130G,-5.85
17,G110C C114U,-4.33
18,G113C C124G,-1.33
19,A108U U112C,-5.97
20,A108U U112A,-4.85
21,U109A C115G,-7.19
22,C114A A119G C124G,0.223
23,C115A A118U U131A,-1.85
24,U109A C114U A121C,-4.32

row,Variant,polymerase ribozyme fitness (log ratio)
1,G117A U131G,-1.55
2,U106A,0.145
3,U106C,-0.282
4,U106G,-1.17
5,U109C A111C,-3.65
6,U112A C115G,-0.927
7,U112C G128U,-0.242
8,G117U U133C,-2.23
9,G117C G120A,-3.91
10,U106A G117U,-2.19
11,G117C U125A G135C,-4.9
12,U106C C114A G120C,-2.21
13,A111C U129G,-0.988
14,C115A A119G,-0.948
15,G110U G120A,-2.47
16,G110U C115A U129C,-3.17
17,A105U U125A,-2.77
18,G110A G113C,-4.78
19,G110C U131C G135A,-2.51
20,A108G U109A C124A,-4.41
21,U116G U130C,-2.14
22,G117U U126G,-5.92
23,A111C U112A,-1.52
24,U109A U112A,-4.47

row,Variant,polymerase ribozyme fitness (log ratio)
1,G113A G120C,-1.02
2,U109A G117U,-5.72
3,G117C U133A,-4.07
4,G117C U133G,-3.89
5,A111G U130G,-0.2
6,G113C U129A,-3.5
7,A108C C123A,-4.12
8,U116C G120U,0.377
9,G110A U129C,-1.47
10,G110U A118G,-1.01
11,G113C C115A,-4.21
12,U116A C123U,-1.63
13,G117A G135C,-1.41
14,G117A G135U,-1.92
15,U106A U125G,-0.507
16,C115G U133G,-0.9
17,G117A U133G,-0.981
18,A105G U132A,-1.89
19,G113U C114G,-2.89
20,G117U A121C,-2.4
21,G110A C124A,-0.401
22,G110A C124U,-0.567
23,G110A C114G,-6.64
24,G110A C114A,-6.15

row,Variant,polymerase ribozyme fitness (log ratio)
1,C115G A119G,1.52
2,C114U A121U,-1.32
3,G110A U125A,-2.43
4,A105G G113U,-5.05
5,U112C G120C,0.72
6,U112G C115A U126G,-2.63
7,U116A U130C,-2.68
8,U106A C115U G127U,-1.18
9,C114U G117C U133A,-5.74
10,G117C U130C,-2.84
11,G117C U130A,-5.1
12,U106G C123G C124G,1.38
13,G113C U116G U130G,-5.3
14,U116G G120C U129A,-2.49
15,G117C C124A G127U,-4.29
16,A111C U112A C123G,-0.191
17,U112A U133A,1.53
18,U112A U133G,1.43
19,A118G G122A U129A,-1.35
20,G107A C114U,-3.83
21,U112C G135U,-0.0479
22,G110C A111G,-5.74
23,C115G G135U,-2.97

# From the RNAGym collection of RNA variant scans (doi:10.1073/pnas.2313332121)
